Reference: publication doi:10.1101/2020.07.21.215244 (bioRxiv, 2020)

T1: AscA (YecA), unfused full-length (E. coli, UniProt P0AD05 1-221)
T1 sequence (looked up): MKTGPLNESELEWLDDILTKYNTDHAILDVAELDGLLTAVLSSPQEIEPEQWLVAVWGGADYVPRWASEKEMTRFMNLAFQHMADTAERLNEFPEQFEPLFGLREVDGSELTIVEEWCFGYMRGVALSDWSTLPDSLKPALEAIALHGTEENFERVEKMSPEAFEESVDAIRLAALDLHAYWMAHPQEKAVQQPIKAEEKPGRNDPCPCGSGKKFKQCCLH


What was measured:
[1] = biological target: vacant (non-translating) 70S ribosomes; test: co-sedimentation
[2] = biological target: T1, AscA (YecA), unfused full-length; test: MST

stoichiometry N [1]	Kd [2]	Binder
1		AscA (YecA), unfused full-length (natural protein) MKTGPLNESELEWLDDILTKYNTDHAILDVAELDGLLTAVLSSPQEIEPEQWLVAVWGGADYVPRWASEKEMTRFMNLAFQHMADTAERLNEFPEQFEPLFGLREVDGSELTIVEEWCFGYMRGVALSDWSTLPDSLKPALEAIALHGTEENFERVEKMSPEAFEESVDAIRLAALDLHAYWMAHPQEKAVQQPIKAEEKPGRNDPCPCGSGKKFKQCCLH
	~150 nM	SecB, fluorescently labelled (NT-647) (natural protein, E. coli, UniProt P0AG86 1-155, looked up, randomly labelled with NT-647 (NT-647-NHS labelling kit)) MSEQNNTEMTFQIQRIYTKDISFEAPNAPHVFQKDWQPEVKLDLDTASSQLADDVYEVVLRVTVTASLGEETAFLCEVQQGGIFSIAGIEGTQMAHCLGAYCPNILFPYARECITSMVSRGTFPQLNLAPVNFDALFMNYLQQQAGEGTEEHQDA
